# Reference: patent US20100330094A1 (NOVIMMUNE S A, published 2010)
# Changes are numbered by the printed parent chain.
# B1: CB21R3P3_E5, IgG1 format (antibody, V domains shown)
# VH: QVQLVESGGGVVQPGRSLRLSCAASGFTFSSYGMHWVRQAPGKGLEWVAVISYDGSIKYYADSVKGRFTISRDNSKNTLYLQMNSLRAEDAAVYYCARAPDGHQLDYWGRGTLVTVSS
# VL: NFMLTQPHSVSESPGKTVTISCTGSSGSIASNYVQWYQQRPGSAPTTVIYEDDQRPSDVPDRFSGSIDSSSNSASLTISGLRTEDEADYYCQSYVSSKWVFGGGTKLTVL
# B2: CC21R3P1_H6, IgG1 format (antibody, V domains shown)
# VH: QVQLVESGGGVAQSGKSLRLSCAASGFTFSNYGMHWVRQAPGKGLEWLAVISYDGSNRYYADSVKGRFTISRDNSNNTLNLQMSSLRAEDTALYYCAKDAGGPLDYWGKGTLVTVSS
# VL: VLTQLTQPPSVSLAPGQTATITCGGDNIGRKSVHWYQQKPGQAPVLVVYDDTDRPSGIPERFSGSNSGNTATLTISRVEAGDEADYYCQVWDSSIDHSWVFGGGTKLTVL
# B3: CF1N1R3P4_C7, scFv format (scFv)
# chain: QVQLVESGGGVVQPGRSLRLSCAASGFTFSNSGIHWVRQAPGKGLEWVAVISYDGSNKFYADSVKGRFTISRDNSKNTLYLQMNSLRAEDTAVYYCAKLRDNAEYTDYWGQGTLVTVSSNFMLTQPHSVSESPGKTVTISCTGSGGSIDRNYVQWYQQRPGSSPTTVIYEDNQRPSGVPDRFSGSIDSSSNSASLTISGLKTEDEADYYCQSYDPLPVWVFGGGTKLTVL
# B4: CC21R3P1_F1, scFv format (scFv)
# chain: QVQLVESGGGVVQPGRSHTLSCAASGFAFKNSGIHWVRQAPGKGLEWVAVISYDGSNKFYADSVKGRFTISRDNSQNTVYLQMTDLRPDDTAVYYCARDGSESEYLDYWGKGTLVTVSSNFMLTQPHSVSESPGKTVTISCTGSGGSIDRNYVQWYQQRPGSAPITVIYEDNQRPSGVPDRFSGSIDSSSNSASLTISGLRTDDEADYYCQSYDSINLWVFGGGTKVTVL
# B5: CC21R3P1_B9, scFv format (scFv)
# chain: EVQLVQSGGGVVQPGRSLRLSCAASGFTFSSYGMHWVRQAPGKGLEWVAVISYDGSNKYYADSVKGRFTISRDNSKNTLYLQMNSLRAEDTAVYYCAKDGGWYDWYFDLWGRGTLVTVSSSSELTQDPDVSVALGQTVRITCQGDSLTSYYASWYQQKPGQAPVLVISGNDNRPSGIPDRFSGSNSGNTASLTITGAQAEDAADYYCGSRDSSGYQVVFGAGTKLTVL
# B6: CB21R3P3_E5, scFv format (scFv)
# chain: QVQLVESGGGVVQPGRSLRLSCAASGFTFSSYGMHWVRQAPGKGLEWVAVISYDGSIKYYADSVKGRFTISRDNSKNTLYLQMNSLRAEDAAVYYCARAPDGHQLDYWGRGTLVTVSSNFMLTQPHSVSESPGKTVTISCTGSSGSIASNYVQWYQQRPGSAPTTVIYEDDQRPSDVPDRFSGSIDSSSNSASLTISGLRTEDEADYYCQSYVSSKWVFGGGTKLTVL
# B7: CC21R3P1_H6, scFv format (scFv)
# chain: QVQLVESGGGVAQSGKSLRLSCAASGFTFSNYGMHWVRQAPGKGLEWLAVISYDGSNRYYADSVKGRFTISRDNSNNTLNLQMSSLRAEDTALYYCAKDAGGPLDYWGKGTLVTVSSQSVLTQLTQPPSVSLAPGQTATITCGGDNIGRKSVHWYQQKPGQAPVLVVYDDTDRPSGIPERFSGSNSGNTATLTISRVEAGDEADYYCQVWDSSIDHSWVFGGGTKLTVL
# B8: CB1R3P4_D3, scFv format (scFv)
# chain: QVQLVQFGGGVVQPGRSLRLSCAASGFTFSSYGMHWVRQAPGKGLEWVAVISYDGSIKYYADSVKGRFTISRENAKNSVYLQMDSLRVGDTAVYYCTRAGYSTDWHPDYWGQGTMVTVSSSSELTQDPAVSVALGQTVRITCQGDSLRSYYASWYQQKPGQAPVLAIYGKNNRPSGIPDRFSGSSSGNTASLTITGAQAEDEADYYCNSRDSSGNHVVFGGGTKLTVL
# B9: CF1H1R3P3_G11, scFv format (scFv)
# chain: B3 chain with A103G, T106L
# B10: CB2R2P4_C3, scFv format (scFv)
# chain: QVTLRESGPALVKPTQTLTLTCTFSGFSLTTSGMSVIWIRQPPGKALEWLARIDSDDEKHYNTSLKTRLAISKDTSKNQVVLTMTNMDPVDTGTYYCARLRAGSGPYVFDSWGQGTTVTVSSQSVLTQPPSASGTPGQRVTISCSGSSSNIGSNTVNWYQRLPGAAPQLLIYNNDQRPSGIPDRFSGSKSGTSGSLVISGLQSEDEADYYCASWDDSLNGRVFGGGTKLTVL
# B11: CC21R3P4_F4, scFv format (scFv)
# chain: QVQLVESGGGVAHSGKSLRLSCAASGFTFSNYGMHWVRQAPGKGLEWLAVISYDGSNRYYADSVKGRFTISRDNSNNTLNLQMSSLRAEDTALYYCAKDAGGPLDYWGRGTLVTVSSSYVLTQPPSVSVAPGQMARITCGGNNIGDKSVQWYQQRPGQAPLLVVYDDSDRPSGIPERFSGSYSRNTATLTISRVEAGDEADYYCQVWDSSSDHPEVVFGGGTKLTVL
# B12: CC21R3P1_C1a, scFv format (scFv)
# chain: QVQLVESGGGVVQPGRSLRLSCAASGFTFSSYGMHWVRQAPGKGLEWVAVISYDGSNKYYADSVKGRFTISRDNSKNTLYLQMNSLRAEDTAVYYCAKDEFDAFDIWGRGTMVTVSSSYVLTQPPSVSVAPGTTARITCGGNNIGSRSVHWYQQKPGQAPLLVIYYDSDRPSGIPLRFSGSNSGNTATLTISRVEAGDEADYYCQVWDTSSGHYVFGTGTKVTVL
# B13: CC21R3P3_C1, scFv format (scFv)
# chain: QVQLVESGGGVVQPGRSLRLSCAASGFTFSSYGMHWVRQAPGKGLEWVAVISYDGSIKYYADSVKGRFTISRDNSRNTLYLQMNSLRPEDTAVYYCAKDWGFSGSLTFDYWGQGTMVTVSSSYVLTQPPSVSVAPGKTARITCGGNNIGSKSVHWYQQKPGQAPVLVIYYDSDRPSGIPERFSGSNSGNTATLTISRVEAGDEADYYCQVWDSSSDHVVFGGGTKVTVL
# B14: CC21R3P1_E7, scFv format (scFv)
# chain: QLVESGGGVVQPGRSLRLSCAASGFTFSTYGMHWVRQAPGKGLEWVAVISYDGGTKYYADSVKGRFTISRDNSMKTLYLQMNSLRTEDTAVYYCAKDLGDLPPGLDYWGQGTMVTVSSQSVLTQPPSASGTPGQRVTISCSGSSSNIGSNTVNWYQQLPGAAPKLLIYTNNQRPSGVPDRFSGSKSGTSASLAISGLQSEDEADYYCAAWDDSLNGNVVFGGGTKVTVL
# B15: CB21R3P1_F1, scFv format (scFv)
# chain: QVQLVESGGGVVRPGRSLRLSCAASGFTFSSYGMHWVRQAPGKGLEWVAVISYDGSIKYYADSVKGRFTISRDNSKNTLYLQMNSLRAEDTAIYYCARVMGTDPHSYYYMDVWGKGTLVTVSSSSELTQDPAVSVALGQTVRITCQGDSLRSYYASWYQRKPGQAPVLVIYGKNNRPSGIPDRFSGSSSGNTASLTITGAQAEDEADYYCNSRDSSGNHVLFGGGTKLTVL
# B16: CB21R3P6_G7, scFv format (scFv)
# chain: QVQLVQSGAEVKKPGSSVTVSCKASGGTFSSFSITWLRQAPGQGLEWMGEITPMFGIANYAQKFQGRVTISADESTSTAYMELSGLTSEDTAMYYCARDGRFDVSDLLTDKPKVTINYNGMDVWGQGTLVTVSSQSVLTQPPSASGTPGQRVTISCSGSSSNIGSNTVNWYQRLPGAAPQLLIYNNDQRPSGIPDRFSGSKSGTSGSLVISGLQSEDEADYYCASWDDSLNGRVFGGGTKLTVL
# B17: CF1H1R3P4_B5, scFv format (scFv)
# chain: B3 chain with A103G, T106L, D214V, P215E, L216T, V218E
# B18: CF1A11R3P3_F3, scFv format (scFv, V domains shown, not shown: small tags and cut ends)
# VH: QVQLVESGGGVVQPGRSLRLSCAASGFTFSNSGIHWVRQAPGKGLEWVAVISYDGSNKFYADSVKGRFTISRDNSKNTLYLQMNSLRAEDTAVYYCAKLRDNGEYLDYWGQGTLVTVSS
# VL: NFMLTQPHSVSESPGKTVTISCTGSGGSIDRNYVQWYQQRPGSAPITVIYEDNQRPSGVPDRFSGSIDSSSNSASLTISGLRTDDEADYYCQSYDSINLWVFGGGTKVTVL
# B19: CE7C1R3H8_J9, scFv format (scFv)
# chain: QVQLVESGGGVVQPGRSLRLSCAASGFTFSTYGMHWVRQAPGKGLEWVAVISYDGGTKYYADSVKGRFTISRDNSMKTLYLQMNSLRTEDTAVYYCAKDLGDLPPGLDYWGQGTMVTVSSQSVLTQPPSASGTPGQRVTISCSGSSSNIGSNTVNWYQQLPGAAPKLLIYTNNQRPSGVPDRFSGSKSGTSASLAISGLQSEDEADYYCAAWDDSSEPRVVFGGGTKVTVL
# Target: T1, recombinant human IP-10 (hIP-10) (human, UniProt P02778 22-98)
# T1 sequence (looked up): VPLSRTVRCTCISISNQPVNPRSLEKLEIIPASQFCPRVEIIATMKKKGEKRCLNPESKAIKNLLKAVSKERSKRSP
# Test: cell-based or functional assay
Binder,Chemotaxis IC50 (nM); 1 nM rhIP-10 [nM],Calcium flux IC50 (nM); 10 nM rhIP-10 [nM]
B1,122,–
B2,75,> 200

# Target: T1, recombinant human IP-10 (hIP-10)
# Test: cell-based or functional assay
# Remark: another data set of the same source
Binder,Chemotaxis IC50 (nM); 0.2 nM hIP-10; hCXCR3 L1.2 cells [nM],Calcium flux IC50 (nM); 10 nM hIP-10; hCXCR3 L1.2 cells [nM],Chemotaxis IC50 (nM); 2 nM hIP-10; hCXCR3 L1.2 cells [nM],Chemotaxis IC50 (nM); 1 nM hIP-10; hCXCR3 L1.2 cells [nM]
B3,0.12,–,–,–
B4,–,36,18,–
B5,–,107,–,107
B6,–,39,36,–
B7,–,71,–,36
B8,–,179,–,72
B9,0.39,7.8,–,–
B10,–,14,–,15
B11,–,107,–,36
B12,–,37,–,108
B13,–,71,–,72
B14,–,250,71,–
B15,–,36,40,–
B16,–,46,–,10
B17,0.51,2.4,–,–
B18,–,14,–,1.8
B19,–,–,–,0.9
